Paper doi:10.1101/2020.02.11.943597

Legend:
[1] = biological target: T1, N-cadherin (human (endogenous in primary fibroblasts)), P19022; assay: AFM single-cell force spectroscopy; details: remark: other sources report otherwise
T1 chain: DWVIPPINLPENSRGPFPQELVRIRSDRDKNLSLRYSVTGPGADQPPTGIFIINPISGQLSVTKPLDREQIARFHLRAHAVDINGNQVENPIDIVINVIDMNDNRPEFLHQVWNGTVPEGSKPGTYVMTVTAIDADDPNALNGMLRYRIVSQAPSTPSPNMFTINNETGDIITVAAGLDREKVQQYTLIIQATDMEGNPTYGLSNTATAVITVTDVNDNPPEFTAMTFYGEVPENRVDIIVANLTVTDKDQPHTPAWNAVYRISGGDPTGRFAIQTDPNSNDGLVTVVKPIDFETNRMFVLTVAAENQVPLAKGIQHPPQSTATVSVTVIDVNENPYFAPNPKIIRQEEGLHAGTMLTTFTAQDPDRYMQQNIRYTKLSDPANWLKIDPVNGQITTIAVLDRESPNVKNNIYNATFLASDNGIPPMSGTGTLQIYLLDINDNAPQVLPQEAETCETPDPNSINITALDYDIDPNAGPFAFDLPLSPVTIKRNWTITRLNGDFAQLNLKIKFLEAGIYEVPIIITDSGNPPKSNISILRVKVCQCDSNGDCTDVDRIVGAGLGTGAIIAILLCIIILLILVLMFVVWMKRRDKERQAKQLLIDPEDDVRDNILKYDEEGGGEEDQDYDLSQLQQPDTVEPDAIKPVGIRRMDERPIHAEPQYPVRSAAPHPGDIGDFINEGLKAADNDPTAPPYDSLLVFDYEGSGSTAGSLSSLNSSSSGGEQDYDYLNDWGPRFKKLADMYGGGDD

[2] = biological target: T1, N-cadherin (human (endogenous in …)); assay: AFM single-cell force spectroscopy; details: remark: other sources report otherwise

median rupture force [1]: 51.9 pN
median rupture force [2]: 45.2 pN
B1: N-cadherin, P19022 160-906 (natural protein)
chain: DWVIPPINLPENSRGPFPQELVRIRSDRDKNLSLRYSVTGPGADQPPTGIFIINPISGQLSVTKPLDREQIARFHLRAHAVDINGNQVENPIDIVINVIDMNDNRPEFLHQVWNGTVPEGSKPGTYVMTVTAIDADDPNALNGMLRYRIVSQAPSTPSPNMFTINNETGDIITVAAGLDREKVQQYTLIIQATDMEGNPTYGLSNTATAVITVTDVNDNPPEFTAMTFYGEVPENRVDIIVANLTVTDKDQPHTPAWNAVYRISGGDPTGRFAIQTDPNSNDGLVTVVKPIDFETNRMFVLTVAAENQVPLAKGIQHPPQSTATVSVTVIDVNENPYFAPNPKIIRQEEGLHAGTMLTTFTAQDPDRYMQQNIRYTKLSDPANWLKIDPVNGQITTIAVLDRESPNVKNNIYNATFLASDNGIPPMSGTGTLQIYLLDINDNAPQVLPQEAETCETPDPNSINITALDYDIDPNAGPFAFDLPLSPVTIKRNWTITRLNGDFAQLNLKIKFLEAGIYEVPIIITDSGNPPKSNISILRVKVCQCDSNGDCTDVDRIVGAGLGTGAIIAILLCIIILLILVLMFVVWMKRRDKERQAKQLLIDPEDDVRDNILKYDEEGGGEEDQDYDLSQLQQPDTVEPDAIKPVGIRRMDERPIHAEPQYPVRSAAPHPGDIGDFINEGLKAADNDPTAPPYDSLLVFDYEGSGSTAGSLSSLNSSSSGGEQDYDYLNDWGPRFKKLADMYGGGDD
